{"source": "patent US20060147914A1", "about": "(Johns Hopkins, published 2006)", "binders": {"B1": {"name": "GST-Homer fusion protein (rat Homer) used with hippocampal extracts (other)", "chain": "GEQPIFSTRAHVFQIDPNTKKNWVPTSKHAVTVSYFYDSTRNVYRIISLDGSKAIINSTITPNMTFTKTSQKFGQWADSRANTVYGLGFSSEHHLSKFAEKFQEFKEAARLAKEKSQEKMELTSTPSQESAGGDLQSPLTPESINGTDDERTPDVTQNSEPRAEPAQNALPFSHRYTFNSAIMIK", "notes": "also called Homer GST fusion protein; Homer GST-fusion protein; not shown: glutathione S-transferase (GST) fusion partner, bacterially expressed"}}, "target": "T1, native mGluR5 in detergent extracts of rat hippocampus (rat, UniProt P31424 21-1203, limits assumed)", "T1 construct": "Native protein in tissue lysate", "T1 sequence (P31424 21-1203 limits assumed)": "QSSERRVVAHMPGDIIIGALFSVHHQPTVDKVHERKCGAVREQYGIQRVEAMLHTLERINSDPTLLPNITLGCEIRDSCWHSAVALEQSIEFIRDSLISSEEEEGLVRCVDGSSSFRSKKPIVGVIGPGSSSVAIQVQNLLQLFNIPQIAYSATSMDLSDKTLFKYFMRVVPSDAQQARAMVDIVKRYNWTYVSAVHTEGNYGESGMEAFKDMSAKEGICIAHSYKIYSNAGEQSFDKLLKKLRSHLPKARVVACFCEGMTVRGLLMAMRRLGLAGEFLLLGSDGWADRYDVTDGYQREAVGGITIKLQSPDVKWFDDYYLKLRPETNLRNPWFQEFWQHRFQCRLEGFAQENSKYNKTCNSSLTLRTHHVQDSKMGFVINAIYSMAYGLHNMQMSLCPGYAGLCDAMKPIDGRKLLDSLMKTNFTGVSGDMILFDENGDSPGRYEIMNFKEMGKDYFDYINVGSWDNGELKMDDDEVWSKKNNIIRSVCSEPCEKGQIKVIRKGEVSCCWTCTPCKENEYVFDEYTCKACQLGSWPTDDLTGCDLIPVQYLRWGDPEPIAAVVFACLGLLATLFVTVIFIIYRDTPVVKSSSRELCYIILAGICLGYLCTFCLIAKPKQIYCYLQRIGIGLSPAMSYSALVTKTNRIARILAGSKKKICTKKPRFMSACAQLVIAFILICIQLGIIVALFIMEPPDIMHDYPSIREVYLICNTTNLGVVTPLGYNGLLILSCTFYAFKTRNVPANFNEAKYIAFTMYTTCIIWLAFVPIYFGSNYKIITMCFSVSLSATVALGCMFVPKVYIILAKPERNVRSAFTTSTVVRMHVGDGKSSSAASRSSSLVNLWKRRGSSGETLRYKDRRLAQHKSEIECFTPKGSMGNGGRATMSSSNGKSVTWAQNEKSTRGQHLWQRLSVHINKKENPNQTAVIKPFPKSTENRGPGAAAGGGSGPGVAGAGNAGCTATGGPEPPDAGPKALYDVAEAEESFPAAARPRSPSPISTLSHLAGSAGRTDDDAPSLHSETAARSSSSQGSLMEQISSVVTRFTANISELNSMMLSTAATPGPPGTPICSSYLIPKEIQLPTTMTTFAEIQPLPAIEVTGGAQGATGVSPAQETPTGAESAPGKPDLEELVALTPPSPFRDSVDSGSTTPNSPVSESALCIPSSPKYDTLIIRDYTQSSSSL", "assay": "in vitro binding assay with detergent extracts of hippocampus", "data": [{"binder": "B1", "values": [{"measurement": "binding result", "result": "binds"}]}]}
